Results: the supplement of paper PMC5998384

How the values were obtained:
HeLa Kyoto [1] = assay: solubility change mitosis vs G1/S (difference of NP-40 vs SDS log2 ratios) (log2 ratio difference); higher = more soluble in mitosis
HeLa Kyoto [2] = assay: solubility in G1/S (NP-40 vs SDS abundance) (log2 ratio); higher = more soluble; conditions: cell cycle stage: G1/S
HeLa Kyoto [3] = assay: melting temperature (median over replicates), in situ; higher = more thermally stable
HeLa Kyoto [4] = assay: thermal stability score vs G1/S (z-score of summed log2 fold changes over temperatures); higher = more thermally stable than in G1/S
[5] = cell cycle stage: early G1 (4.5 h after nocodazole release)
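Throughout, for melting temperature (median over replicates), in situ: HeLa Kyoto cells synchronized by double thymidine or nocodazole block, proteins quantified by TMT10plex mass spectrometry, three independent biological replicates.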
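Throughout, for solubility change mitosis vs G1/S (difference of NP-40 vs SDS log2 ratios): synchronized HeLa Kyoto cells (double thymidine block for G1/S, nocodazole release for mitosis), protein amounts in NP-40 versus SDS lysates quantified by mass spectrometry, three biological replicates.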
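Throughout, for solubility in G1/S (NP-40 vs SDS abundance): HeLa Kyoto cells arrested at G1/S by double thymidine block, proteins quantified by TMT10plex mass spectrometry in mild NP-40 versus SDS extracts, three biological replicates.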
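Throughout, for thermal stability score vs G1/S (z-score of summed log2 fold changes over temperatures): synchronized HeLa Kyoto cells, proteins quantified by TMT10plex mass spectrometry, three biological replicates, mitosis taken 0.5 h after nocodazole release, G1/S directly after double thymidine block.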

Substance | solubility change mitosis (log2) (HeLa Kyoto [1]) | solubility in G1/S (log2) (HeLa Kyoto [2]) | melting temperature (HeLa Kyoto [3]; cell cycle stage: G1/S) | melting temperature (HeLa Kyoto [3]; cell cycle stage: mitosis) | thermal stability score (HeLa Kyoto [4]; [5]) | thermal stability score (HeLa Kyoto [4]; cell cycle stage: mitosis)
MAARRALHFVFKVGNRFQTARFYRDVLGMKVESCSVARLECSGAISAHCSDYTRITEDSFSKPYDGKWSKTMVGFGPEDDHFVAELTYNYGVGDYKLGNDFMGITLASSQAVSNARKLEWPLTEVAEGVFETEAPGGYKFYLQNRSLPQSDPVLKVTLAVSDLQKSLNYWCNLLGMKIYEKDEEKQRALLGYADNQCKLELQGVKGGVDHAAAFGRIAFSCPQKELPDLEDLMKRENQKILTPLVSLDTPGKATVQVVILADPDGHEICFVGDEAFRELSKMDPEGSKLLDDAMAADKSDEWFAKHNKPKASG [GLOD4] | -0.012 | 0.42 | 50.8 °C | 50.9 °C | 0.704 | 0.532
MPRKRKCDLRAVRVGLLLGGGGVYGSRFRFTFPGCRALSPWRVRVQRRRCEMSTMFADTLLIVFISVCTALLAEGITWVLVYRTDKYKRLKAEVEKQSKKLEKKKETITESAGRQQKKKIERQEEKLKNNNRDLSMVRMKSMFAIGFCFTALMGMFNSIFDGRVVAKLPFTPLSYIQGLSHRNLLGDDTTDCSFIFLYILCTMSIRQNIQKILGLAPSRAATKQAGGFLGPPPPSGKFS [TMCO1] | 0.0683 | -0.0501 | 53.7 °C | 54.1 °C | -0.0145 | -0.0344
MGAQLSTLGHMVLFPVWFLYSLLMKLFQRSTPAITLESPDIKYPLRLIDREIISHDTRRFRFALPSPQHILGLPVGQHIYLSARIDGNLVVRPYTPISSDDDKGFVDLVIKVYFKDTHPKFPAGGKMSQYLESMQIGDTIEFRGPSGLLVYQGKGKFAIRPDKKSNPIIRTVKSVGMIAGGTGITPMLQVIRAIMKDPDDHTVCHLLFANQTEKDILLRPELEELRNKHSARFKLWYTLDRAPEAWDYGQGFVNEEMIRDHLPPPEEEPLVLMCGPPPMIQYACLPNLDHVGHPTERCFVF [CYB5R3] | -0.158 | -0.215 | 56 °C | 55.8 °C | -1.92 | -2.76
MEFLKTCVLRRNACTAVCFWRSKVVQKPSVRRISTTSPRSTVMPAWVIDKYGKNEVLRFTQNMMMPIIHYPNEVIVKVHAASVNPIDVNMRSGYGATALNMKRDPLHVKIKGEEFPLTLGRDVSGVVMECGLDVKYFKPGDEVWAAVPPWKQGTLSEFVVVSGNEVSHKPKSLTHTQAASLPYVALTAWSAINKVGGLNDKNCTGKRVLILGASGGVGTFAIQVMKAWDAHVTAVCSQDASELVRKLGADDVIDYKSGSVEEQLKSLKPFDFILDNVGGSTETWAPDFLKKWSGATYVTLVTPFLLNMDRLGIADGMLQTGVTVGSKALKHFWKGVHYRWAFFMASGPCLDDIAELVDAGKIRPVIEQTFPFSKVPEAFLKVERGHARGKTVINVV [RTN4IP1] | -0.0156 | -0.119 | 50.7 °C | 51.7 °C | 0.632 | 1.04
MSNEVETSATNGQPDQQAAPKAPSKKEKKKGPEKTDEYLLARFKGDGVKYKAKLIGIDDVPDARGDKMSQDSMMKLKGMAAAGRSQGQHKQRIWVNISLSGIKIIDEKTGVIEHEHPVNKISFIARDVTDNRAFGYVCGGEGQHQFFAIKTGQQAEPLVVDLKDLFQVIYNVKKKEEEKKKIEEASKAVENGSEALMILDDQTNKLKSGVDQMDLFGDMSTPPDLNSPTESKDILLVDLNSEIDTNQNSLRENPFLTNGITSCSLPRPTPQASFLPENAFSANLNFFPTPNPDPFRDDPFTQPDQSTPSSFDSLKSPDQKKENSSSSSTPLSNGPLNGDVDYFGQQFDQISNRTGKQEAQAGPWPFSSSQTQPAVRTQNGVSEREQNGFSVKSSPNPFVGSPPKGLSIQNGVKQDLESSVQSSPHDSIAIIPPPQSTKPGRGRRTAKSSANDLLASDIFAPPVSEPSGQASPTGQPTALQPNPLDLFKTSAPAPVGPLVGLGGVTVTLPQAGPWNTASLVFNQSPSMAPGAMMGGQPSGFSQPVIFGTSPAVSGWNQPSPFAASTPPPVPVVWGPSASVAPNAWSTTSPLGNPFQSNIFPAPAVSTQPPSMHSSLLVTPPQPPPRAGPPKDISSDAFTALDPLGDKEIKDVKEMFKDFQLRQPPAVPARKGEQTSSGTLSAFASYFNSKVGIPQENADHDDFDANQLLNKINEPPKPAPRQVSLPVTKSTDNAFENPFFKDSFGSSQASVASSQPVSSEMYRDPFGNPFA [DAB2] | -0.113 | 0.277 | 48.5 °C | 50.3 °C | 2.68 | 5.04
MTSEVIEDEKQFYSKAKTYWKQIPPTVDGMLGGYGHISSIDINSSRKFLQRFLREGPNKTGTSCALDCGAGIGRITKRLLLPLFREVDMVDITEDFLVQAKTYLGEEGKRVRNYFCCGLQDFTPEPDSYDVIWIQWVIGHLTDQHLAEFLRRCKGSLRPNGIIVIKDNMAQEGVILDDVDSSVCRDLDVVRRIICSAGLSLLAEERQENLPDEIYHVYSFALR [NTMT1] | -0.15 | 0.238 | 49.9 °C | 51.2 °C | 1.31 | 1.61
METSAPRAGSQVVATTARHSAAYRADPLRVSSRDKLTEMAASSQGNFEGNFESLDLAEFAKKQPWWRKLFGQESGPSAEKYSVATQLFIGGVTGWCTGFIFQKVGKLAATAVGGGFFLLQLANHTGYIKVDWQRVEKDMKKAKEQLKIRKSNQIPTEVRSKAEEVVSFVKKNVLVTGGFFGGFLLGMAS [FUNDC2] | -0.0574 | 0.0627 | 58.2 °C | 55.9 °C | -0.847 | -1.68
MKSLKAKFRKSDTNEWNKNDDRLLQAVENGDAEKVASLLGKKGASATKHDSEGKTAFHLAAAKGHVECLRVMITHGVDVTAQDTTGHSALHLAAKNSHHECIRKLLQSKCPAESVDSSGKTALHYAAAQGCLQAVQILCEHKSPINLKDLDGNIPLLLAVQNGHSEICHFLLDHGADVNSRNKSGRTALMLACEIGSSNAVEALIKKGADLNLVDSLGYNALHYSKLSENAGIQSLLLSKISQDADLKTPTKPKQHDQVSKISSERSGTPKKRKAPPPPISPTQLSDVSSPRSITSTPLSGKESVFFAEPPFKAEISSIRENKDRLSDSTTGADSLLDISSEADQQDLLSLLQAKVASLTLHNKELQDKLQAKSPKEAEADLSFDSYHSTQTDLGPSLGKPGETSPPDSKSSPSVLIHSLGKSTTDNDVRIQQLQEILQDLQKRLESSEAERKQLQVELQSRRAELVCLNNTEISENSSDLSQKLKETQSKYEEAMKEVLSVQKQMKLGLVSPESMDNYSHFHELRVTEEEINVLKQDLQNALEESERNKEKVRELEEKLVEREKGTVIKPPVEEYEEMKSSYCSVIENMNKEKAFLFEKYQEAQEEIMKLKDTLKSQMTQEASDEAEDMKEAMNRMIDELNKQVSELSQLYKEAQAELEDYRKRKSLEDVTAEYIHKAEHEKLMQLTNVSRAKAEDALSEMKSQYSKVLNELTQLKQLVDAQKENSVSITEHLQVITTLRTAAKEMEEKISNLKEHLASKEVEVAKLEKQLLEEKAAMTDAMVPRSSYEKLQSSLESEVSVLASKLKESVKEKEKVHSEVVQIRSEVSQVKREKENIQTLLKSKEQEVNELLQKFQQAQEELAEMKRYAESSSKLEEDKDKKINEMSKEVTKLKEALNSLSQLSYSTSSSKRQSQQLEALQQQVKQLQNQLAECKKQHQEVISVYRMHLLYAVQGQMDEDVQKVLKQILTMCKNQSQKK [RAI14] | 0.267 | -0.263 | 49.7 °C | 50 °C | 0.622 | 0.688
MESALPAAGFLYWVGAGTVAYLALRISYSLFTALRVWGVGNEAGVGPGLGEWAVVTGSTDGIGKSYAEELAKHGMKVVLISRSKDKLDQVSSEIKEKFKVETRTIAVDFASEDIYDKIKTGLAGLEIGILVNNVGMSYEYPEYFLDVPDLDNVIKKMININILSVCKMTQLVLPGMVERSKGAILNISSGSGMLPVPLLTIYSATKTFVDFFSQCLHEEYRSKGVFVQSVLPYFVATKLAKIRKPTLDKPSPETFVKSAIKTVGLQSRTNGYLIHALMGSIISNLPSWIYLKIVMNMNKSTRAHYLKKTKKN [HSD17B12] | -0.194 | 0.079 | 53.9 °C | 53.7 °C | -1.05 | -1.18
MTGNAGEWCLMESDPGVFTELIKGFGCRGAQVEEIWSLEPENFEKLKPVHGLIFLFKWQPGEEPAGSVVQDSRLDTIFFAKQVINNACATQAIVSVLLNCTHQDVHLGETLSEFKEFSQSFDAAMKGLALSNSDVIRQVHNSFARQQMFEFDTKTSAKEEDAFHFVSYVPVNGRLYELDGLREGPIDLGACNQDDWISAVRPVIEKRIQKYSEGEIRFNLMAIVSDRKMIYEQKIAELQRQLAEEEPMDTDQGNSMLSAIQSEVAKNQMLIEEEVQKLKRYKIENIRRKHNYLPFIMELLKTLAEHQQLIPLVEKAKEKQNAKKAQETK [UCHL5] | -0.0948 | 0.533 | 48.7 °C | 48.9 °C | 1.19 | 2.51
WDR62 | 0.187 | -0.382 | 49 °C | 49.3 °C | 0.713 | 1.36
MDFTAQPKPATALCGVVSADGKIAYPPGVKEITDKITTDEMIKRLKMVVKTFMDMDQDSEDEKQQYLPLALHLASEFFLRNPNKDVRLLVACCLADIFRIYAPEAPYTSHDKLKDIFLFITRQLKGLEDTKSPQFNRYFYLLENLAWVKSYNICFELEDCNEIFIQLFRTLFSVINNSHNKKVQMHMLDLMSSIIMEGDGVTQELLDSILINLIPAHKNLNKQSFDLAKVLLKRTVQTIEACIANFFNQVLVLGRSSVSDLSEHVFDLIQELFAIDPHLLLSVMPQLEFKLKSNDGEERLAVVRLLAKLFGSKDSDLATQNRPLWQCFLGRFNDIHVPVRLESVKFASHCLMNHPDLAKDLTEYLKVRSHDPEEAIRHDVIVTIITAAKRDLALVNDQLLGFVRERTLDKRWRVRKEAMMGLAQLYKKYCLHGEAGKEAAEKVSWIKDKLLHIYYQNSIDDKLLVEKIFAQYLVPHNLETEERMKCLYYLYASLDPNAVKALNEMWKCQNMLRSHVRELLDLHKQPTSEANCSAMFGKLMTIAKNLPDPGKAQDFVKKFNQVLGDDEKLRSQLELLISPTCSCKQADICVREIARKLANPKQPTNPFLEMVKFLLERIAPVHIDSEAISALVKLMNKSIEGTADDEEEGVSPDTAIRSGLELLKVLSFTHPTSFHSAETYESLLQCLRMEDDKVAEAAIQIFRNTGHKIETDLPQIRSTLIPILHQKAKRGTPHQAKQAVHCIHAIFTNKEVQLAQIFEPLSRSLNADVPEQLITPLVSLGHISMLAPDQFASPMKSVVANFIVKDLLMNDRSTGEKNGKLWSPDEEVSPEVLAKVQAIKLLVRWLLGMKNNQSKSANSTLRLLSAMLVSEGDLTEQKRISKSDMSRLRLAAGSAIMKLAQEPCYHEIITPEQFQLCALVINDECYQVRQIFAQKLHKALVKLLLPLEYMAIFALCAKDPVKERRAHARQCLLKNISIRREYIKQNPMATEKLLSLLPEYVVPYMIHLLAHDPDFTRSQDVDQLRDIKECLWFMLEVLMTKNENNSHAFMKKMAENIKLTRDAQSPDESKTNEKLYTVCDVALCVINSKSALCNADSPKDPVLPMKFFTQPEKDFCNDKSYISEETRVLLLTGKPKPAGVLGAVNKPLSATGRKPYVRSTGTETGSNINVNSELNPSTGNRSREQSSEAAETGVSENEENPVRIISVTPVKNIDPVKNKEINSDQATQGNISSDRGKKRTVTAAGAENIQQKTDEKVDESGPPAPSKPRRGRRPKSESQGNATKNDDLNKPINKGRKRAAVGQESPGGLEAGNAKAPKLQDLAKKAAPAERQIDLQR [PDS5A] | -0.126 | -0.0007 | 47.2 °C | 48.7 °C | 5.43 | 11.2
MAVTITLKTLQQQTFKIRMEPDETVKVLKEKIEAEKGRDAFPVAGQKLIYAGKILSDDVPIRDYRIDEKNFVVVMVTKTKAGQGTSAPPEASPTAAPESSTSFPPAPTSGMSHPPPAAREDKSPSEESAPTTSPESVSGSVPSSGSSGREEDAASTLVTGSEYETMLTEIMSMGYERERVVAALRASYNNPHRAVEYLLTGIPGSPEPEHGSVQESQVSEQPATEAAGENPLEFLRDQPQFQNMRQVIQQNPALLPALLQQLGQENPQLLQQISRHQEQFIQMLNEPPGELADISDVEGEVGAIGEEAPQMNYIQVTPQEKEAIERLKALGFPESLVIQAYFACEKNENLAANFLLSQNFDDE [RAD23A] | 0.0994 | 0.0728 | 56.3 °C | 55.5 °C | -1.83 | -1.48
